According to the supplement of paper PMC10126150:
± gives the standard deviation of the averaged measurements.
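Further: ATP exposure 15 min at 22 °C before imaging.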

The sequences below were run on ATP (assay: switch fluorescence ratio, 500 uM ATP over buffer (Cy3 cluster intensity, sum of 5 cycles each) (fold (ratio)); higher = stronger signal-on switching upon ATP binding; sequences stand for … in TCGTCGGCAGCGTCAGATGTGTATAAGAGACAGTTTTTTTTTTTTTTTTTTTTTTTTT…TC). Settings: aptamer strand: ATP DNA aptamer (quencher-CACCTGGGGGAGTATTGCGGAGGAAGG + anchor), 100 nM annealed; ATP concentration: 500 uM.
Outline: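 Five buffer/ATP imaging cycles were run on Cy3-labelled switching-strand clusters on a modified Illumina MiSeq flow-cell, with NaOH stripping and re-annealing between cycles. In each cycle, clusters annealed to 100 nM quencher-labelled ATP aptamer were imaged in selection buffer, then after 15 min with 500 uM ATP at 22 °C. Per cluster, the fluorescence ratio is summed target-cycle over summed buffer-cycle Cy3 intensity, averaged per switch-domain sequence. Only clusters within 100-1000 RFU were kept.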
GCTTAATGT was tested, and the switch fluorescence ratio was 1 ± 0.083. Sequence TGGAGTTAGG has a switch fluorescence ratio of 0.995 ± 0.013. For CCATAGGAAT, the switch fluorescence ratio was 1.06 ± 0.023. In the case of GTGGTGTACT, the switch fluorescence ratio is reported as 0.985 ± 0.0081. For ACAGTGCTGC, the switch fluorescence ratio was 0.978 ± 0.012. Work on GGGTGACCAA yielded a switch fluorescence ratio of 0.969 ± 0.013. Sequence TAAATTTTTC has a switch fluorescence ratio of 1.042 ± 0.008. TTCGGCACGT gave a switch fluorescence ratio of 1.01 ± 0.021. Work on GGCAGGGCTG yielded a switch fluorescence ratio of 0.974 ± 0.051. In the case of TACGTCGCTG, the switch fluorescence ratio is reported as 0.971 ± 0.023. Work on TCATGAGCCA yielded a switch fluorescence ratio of 1.04 ± 0.025. In the case of CGTTAATAGC, the switch fluorescence ratio is reported as 1.14 ± 0.019. Work on GGCTTGGGAA yielded a switch fluorescence ratio of 0.968 ± 0.027. For TTTTGGTTTG, the switch fluorescence ratio was 1 ± 0.034. AGCTCGACGC showed a switch fluorescence ratio of 1.19 ± 0.064. For CGTTACGGGG, the switch fluorescence ratio was 0.9788 ± 0.0055. GGATGGGGGA was tested, and the switch fluorescence ratio was 1.02 ± 0.03. For AGTTTTTTTC, the switch fluorescence ratio was 1.02 ± 0.023. CCTGAATTAT gave a switch fluorescence ratio of 0.9941 ± 0.0012. TTTCTTCTCA was tested, and the switch fluorescence ratio was 1.01 ± 0.024. GATTGACCCT showed a switch fluorescence ratio of 1.048 ± 0.0092. TTTAGCTGCC was tested, and the switch fluorescence ratio was 1.16 ± 0.064. TGTAACTTGC was tested, and the switch fluorescence ratio was 1.077 ± 0.0036. CGGTGGGGGT showed a switch fluorescence ratio of 0.988 ± 0.022. AAATGCTTAT was tested, and the switch fluorescence ratio was 1.04 ± 0.022. Work on GGTAATAGGG yielded a switch fluorescence ratio of 0.996 ± 0.036. Work on TCTGGGGGTT yielded a switch fluorescence ratio of 1.02 ± 0.054. For ACCGGTAAAT, the switch fluorescence ratio was 1.01 ± 0.037. With TATTTAAAGC the switch fluorescence ratio was 0.9768 ± 0.0092. For TCGAGTTGCA, the switch fluorescence ratio was 1 ± 0.033. With TTTATGGGTG the switch fluorescence ratio was 1.01 ± 0.016. CAGAGAGGTG gave a switch fluorescence ratio of 1.07 ± 0.041. Work on ACAAGGGTTC yielded a switch fluorescence ratio of 1 ± 0.015. Sequence AGTCCGATTT has a switch fluorescence ratio of 1.03 ± 0.061. AGGGGGGTTA gave a switch fluorescence ratio of 0.984 ± 0.04. Work on ACGGAGTTAC yielded a switch fluorescence ratio of 1.84 ± 0.18. Sequence TAGTCTGCGT has a switch fluorescence ratio of 1.04 ± 0.037. ATCGAATATT gave a switch fluorescence ratio of 0.983 ± 0.031. Sequence GATTATTGGA has a switch fluorescence ratio of 1.01 ± 0.026. GCCGGTACAA gave a switch fluorescence ratio of 1.01 ± 0.073. AGTTTATAGA was tested, and the switch fluorescence ratio was 1.01 ± 0.023. With TCCCCCTGTT the switch fluorescence ratio was 1.01 ± 0.013. ACGGGACGGC gave a switch fluorescence ratio of 1.04 ± 0.14. Sequence GGGATGGGAG has a switch fluorescence ratio of 1.02 ± 0.038. With TGCGTCCAAG the switch fluorescence ratio was 1.02 ± 0.029. Work on GGTAGGAAAC yielded a switch fluorescence ratio of 0.994 ± 0.045. Sequence AAACTTGGGG has a switch fluorescence ratio of 1 ± 0.035. For AGGCATAAGG, the switch fluorescence ratio was 0.9897 ± 0.0077. In the case of ATAAGGTCAA, the switch fluorescence ratio is reported as 0.995 ± 0.047. With TGTTTATTTC the switch fluorescence ratio was 1.03 ± 0.08. TGCGGGGTGG was tested, and the switch fluorescence ratio was 1.12 ± 0.072. GGTGGAGGGT was tested, and the switch fluorescence ratio was 0.9938 ± 0.0025. AAATGTGTCT showed a switch fluorescence ratio of 1.01 ± 0.04. TATCGTAGGC was tested, and the switch fluorescence ratio was 0.9996 ± 0.00057. Sequence GGCTTGGGGC has a switch fluorescence ratio of 0.9756 ± 0.0032. Work on TTTTAACCGA yielded a switch fluorescence ratio of 1.08 ± 0.034. In the case of TGTTCCAATA, the switch fluorescence ratio is reported as 1.03 ± 0.024. In the case of AGTTTGGGTA, the switch fluorescence ratio is reported as 0.9959 ± 0.008. Work on TTGAGGATAG yielded a switch fluorescence ratio of 0.987 ± 0.021. TGCATTGGTG showed a switch fluorescence ratio of 1.018 ± 0.0019. TTCATGGTGG was tested, and the switch fluorescence ratio was 1.01 ± 0.052. CGTACTGAAA gave a switch fluorescence ratio of 1.04 ± 0.0087. In the case of AGGGTTTACG, the switch fluorescence ratio is reported as 1.05 ± 0.045. TGGAGGTTAG gave a switch fluorescence ratio of 1.02 ± 0.034. ATTACGGTGG was tested, and the switch fluorescence ratio was 1 ± 0.045. Work on ATGAAAGGTT yielded a switch fluorescence ratio of 0.975 ± 0.021. With GTGAGCTCAT the switch fluorescence ratio was 1.01 ± 0.04. For TCGAGTATTC, the switch fluorescence ratio was 1.04 ± 0.013. TTAGAGAAAA was tested, and the switch fluorescence ratio was 1.03 ± 0.079. Sequence TTTGCAAGGG has a switch fluorescence ratio of 1.81 ± 1.2. Work on GTTTAGGCCC yielded a switch fluorescence ratio of 1 ± 0.041. For CCTCTGATCT, the switch fluorescence ratio was 1.38 ± 0.1. CTCCTACAGC gave a switch fluorescence ratio of 1.32 ± 0.2. Work on GAGATATTTA yielded a switch fluorescence ratio of 0.9905 ± 0.0036. Work on GGGGAAGGCA yielded a switch fluorescence ratio of 0.946 ± 0.084. For GCTGATGTTC, the switch fluorescence ratio was 1.0082 ± 0.001. With CTCAGAATAT the switch fluorescence ratio was 1.046 ± 0.0086. Sequence TGAGGGGTAA has a switch fluorescence ratio of 0.993 ± 0.042. CGGGGGCAGG was tested, and the switch fluorescence ratio was 1.03 ± 0.07. GCTGTTGGGA showed a switch fluorescence ratio of 0.9968 ± 0.0078. GTCTTTTACG showed a switch fluorescence ratio of 1.005 ± 0.0013. In the case of AACAATTATT, the switch fluorescence ratio is reported as 1.04 ± 0.048. TTATGAAGTT showed a switch fluorescence ratio of 0.996 ± 0.014. Sequence ATTGACATGT has a switch fluorescence ratio of 1.03 ± 0.037. With GGATGGCGGT the switch fluorescence ratio was 0.9846 ± 0.0069. For CAATGGGAG, the switch fluorescence ratio was 0.988 ± 0.014. Sequence TAAAATTATG has a switch fluorescence ratio of 0.974 ± 0.019. ACGGAAGGTT was tested, and the switch fluorescence ratio was 1.03 ± 0.043. In the case of TGCTTTGTGT, the switch fluorescence ratio is reported as 0.978 ± 0.025. For TCAAACGTAT, the switch fluorescence ratio was 1.06 ± 0.022. With AGCACGGCAG the switch fluorescence ratio was 0.991 ± 0.021. Sequence ACGCTGCCAG has a switch fluorescence ratio of 1.04 ± 0.02. For GCTCTATGGT, the switch fluorescence ratio was 1.006 ± 0.0078. In the case of AGTAACAGTA, the switch fluorescence ratio is reported as 1 ± 0.037. With TTAGGGGTGT the switch fluorescence ratio was 1.01 ± 0.022. Sequence TGTTGAGTTT has a switch fluorescence ratio of 0.994 ± 0.027. CTTCGGGGCG gave a switch fluorescence ratio of 1.01 ± 0.07. Work on GATATAGGTT yielded a switch fluorescence ratio of 1 ± 0.02. ACATTCGTCC was tested, and the switch fluorescence ratio was 1.37 ± 0.063. With GTTTGTTTGG the switch fluorescence ratio was 0.974 ± 0.023. For GACGGGCACA, the switch fluorescence ratio was 1.13 ± 0.028. GTGTGAGCGG showed a switch fluorescence ratio of 0.9901 ± 0.0052. With ATGGGATCTG the switch fluorescence ratio was 0.999 ± 0.025. Work on AAGTTTTATC yielded a switch fluorescence ratio of 0.989 ± 0.021. Work on TGGGTATATA yielded a switch fluorescence ratio of 1.03 ± 0.016. For TGGAAAATTC, the switch fluorescence ratio was 1.019 ± 0.0078. TTTGCCCCCT gave a switch fluorescence ratio of 1.04 ± 0.051. For GTTGGTTTTG, the switch fluorescence ratio was 1.008 ± 0.0057. GAGGTACTTT showed a switch fluorescence ratio of 0.993 ± 0.022. CATGGAGTAC was tested, and the switch fluorescence ratio was 1.02 ± 0.032. TTGTAGGGGA showed a switch fluorescence ratio of 1.04 ± 0.06. GTTGTTATAT was tested, and the switch fluorescence ratio was 1.02 ± 0.037. In the case of ACGTACTTGA, the switch fluorescence ratio is reported as 1.52 ± 0.085. With GTGGGATAAA the switch fluorescence ratio was 0.969 ± 0.011. ACGGCCGGGA gave a switch fluorescence ratio of 1.02 ± 0.026. TTTCTCAGAG showed a switch fluorescence ratio of 0.995 ± 0.016. TAGGGGGTGG showed a switch fluorescence ratio of 1 ± 0.03. Work on GCTGGATTGC yielded a switch fluorescence ratio of 0.916 ± 0.048. Sequence ATACTTACCG has a switch fluorescence ratio of 1.223 ± 0.0077. With ACGGCATTAA the switch fluorescence ratio was 1.165 ± 0.0043. TCGGCGGGAG showed a switch fluorescence ratio of 1.01 ± 0.042. GCACCACCGT showed a switch fluorescence ratio of 1.15 ± 0.014. TAGGGGTTGC was tested, and the switch fluorescence ratio was 1.1 ± 0.11. Sequence TGGTTTGGGA has a switch fluorescence ratio of 1 ± 0.029. In the case of TTCGGTCTAA, the switch fluorescence ratio is reported as 0.979 ± 0.023. ATCACACATT gave a switch fluorescence ratio of 1.02 ± 0.032. TGGTGAATTT showed a switch fluorescence ratio of 1.016 ± 0.0067. TGAGAACCCG was tested, and the switch fluorescence ratio was 1.02 ± 0.051. Sequence GGTGCATGAC has a switch fluorescence ratio of 1.39 ± 0.0037. With AATTTACGTG the switch fluorescence ratio was 1.06 ± 0.011. TTTGGAAATT showed a switch fluorescence ratio of 1.43 ± 0.61. Work on AGGGTGTTAG yielded a switch fluorescence ratio of 1 ± 0.013. TCAGGAGGGG gave a switch fluorescence ratio of 0.997 ± 0.02. For AATAGGGTTC, the switch fluorescence ratio was 0.982 ± 0.025. Sequence TTAGTATATA has a switch fluorescence ratio of 0.9946 ± 0.0059. In the case of TCCATAGGGG, the switch fluorescence ratio is reported as 1.53 ± 0.88. For GTGGCATGTT, the switch fluorescence ratio was 0.9788 ± 0.0038. Sequence ATGGGGCACG has a switch fluorescence ratio of 0.987 ± 0.037. GGGGGGATGA gave a switch fluorescence ratio of 0.992 ± 0.024. CGGAGTTATC gave a switch fluorescence ratio of 1.35 ± 0.2. TTTTTCTATT was tested, and the switch fluorescence ratio was 0.988 ± 0.019. GGGCGACGGG showed a switch fluorescence ratio of 0.996 ± 0.046. For ATGAAGAGCG, the switch fluorescence ratio was 0.994 ± 0.015. CCTATTGGGG was tested, and the switch fluorescence ratio was 1.02 ± 0.037. Work on GGGTTGTTAC yielded a switch fluorescence ratio of 1.14 ± 0.069. TTTTTTAGGG gave a switch fluorescence ratio of 0.988 ± 0.029. TCTATCTAGA gave a switch fluorescence ratio of 0.988 ± 0.014. For CGTTGCTTGG, the switch fluorescence ratio was 1 ± 0.046. With CAGGCTGACC the switch fluorescence ratio was 0.974 ± 0.025. GGGGTGTATA showed a switch fluorescence ratio of 1 ± 0.045. With ATTGAAACGA the switch fluorescence ratio was 1.08 ± 0.039. AAGAGTACAT gave a switch fluorescence ratio of 0.993 ± 0.034. Work on CAGCAAGGGA yielded a switch fluorescence ratio of 1.12 ± 0.025. ACGTTTTTTT showed a switch fluorescence ratio of 0.988 ± 0.035. Sequence CGGGCTGAGA has a switch fluorescence ratio of 1.045 ± 0.0048. Work on TGAAGACTGA yielded a switch fluorescence ratio of 1 ± 0.012. ATCTTCAGGT gave a switch fluorescence ratio of 0.995 ± 0.0013.
